Reference: the supplement of paper PMC9170038

Test system: MS2 coat protein
Experiment: apparent KD of MS2 coat protein; designed switch direction (-1 OFF switch, 1 ON switch): 1; higher = weaker reporter binding
Summary of the method: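 Designed RNA switches were transcribed on Illumina chips by stalled E. coli RNA polymerase and titrated with SNAP-549-labelled MS2 coat protein from 0.7 or 1.5 nM, doubling to 3 µM. Step length ran from 0.8–1.5 h at the lowest concentration to 10–20 min at the highest. The apparent KD is the median over clusters for each design, from curve-fitted normalised cluster fluorescence.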

[1] = Eterna round: R95, input ligand: FMN 200 uM
[2] = Eterna round: R95, input ligand: microRNA oligo, concentration not stated
[3] = Eterna round: R95, input ligand: none
[4] = input ligand: microRNA oligo, concentration not stated

Row | Sequence | apparent KD of MS2 coat protein [1] | apparent KD of MS2 coat protein [2] | apparent KD of MS2 coat protein [3] | apparent KD of MS2 coat protein (input ligand: FMN 200 uM) | apparent KD of MS2 coat protein [4] | apparent KD of MS2 coat protein (input ligand: none)
1 | UUAAAACAUGAGGAUCACCCAUGUCAACAAAGUCGAGGAUAUGGGCAAAUAAAAUAAGAACCAGAAGGCGAAUAAC [salish99_SS1_r3_007] (puzzle: Same State 1) | 43.9 nM | 422 nM | 390 nM | – | – | –
2 | AAAGGACAUGAGGAUCACCCAUGUAGAAAAUACACAGGAUAUCGUCAUAUCGAAAUAUAAUGAGAAGGGUGCAAAA [Zaanininra] (puzzle: Same State 1) | 73.5 nM | 179 nM | 256 nM | – | – | –
3 | AACUAUCUAUCUCAGGAUAUCAUGUCAAAGACAUGAGGAUCACCCAUGUACCAGGAAACUGGUUAUGAGAAGGGAGAUAGAUAGG [Mat - Same State 2 - Mod - D42] (puzzle: Same State 2) | 193 nM | 64.8 nM | 68.3 nM | – | – | –
4 | UGUGUCAUAGGUUUUUUAGCUCGUCUGAUACAUGAGGAUCACCCAUGUUAUAGCCCUGUGCUUGCGCAGGGCUGAGG [JL shm-2.xx] (puzzle: Sensor for hsa-mir-208a) | 50.2 nM | 36.6 nM | 56.7 nM | – | – | –
5 | GACAAUCUAUCUGAGGAUAUCAUGAAAAAAACAUGAGGAUCACCCAUGUGCAGGAAAACUGCAUAUGAGAAGGCAGAUAGAUUGC [salish99_SS2_r3_012] (puzzle: Same State 2) | 34.1 nM | 443 nM | 781 nM | – | – | –
6 | UGAAUAGUCACAGGAUAUCAUGCGAAAAUUGCGUGAGAAGGGUGGGUGUUGUGCUCAAAGUGCUACAUGAGGAUCACCCAUGUU [SameState NG1 #41] (Eterna round: R96, puzzle: Same State NG 1) | – | – | – | 1540 nM | 638 nM | 1210 nM
7 | ACAUGAGAUCUAGGAUAUAUUGUACCUACAUGUGACAUGAGGAUCACCCAUGUGGUAAGUAUGACAUAGAAGGAGAAGAUAUGU [Equivalance 95 - Jieux - Same State NG 2] (Eterna round: R96, puzzle: Same State NG 2) | – | – | – | – | 53.9 nM | –
8 | UAUUUAAUCGUAGGAUAUAGAAUGAAAUUUGUACUAGAAGGACGUUACAUGAGGAUCACCCAUGUGGUAAGUGGGACAUAGUUU [JR_SSNG1_Sub036] (Eterna round: R96, puzzle: Same State NG 1) | – | – | – | 141 nM | 84.5 nM | 82.2 nM
9 | AAAGUACAUGAGGAUCACCCAUGUCCCAAUGAAUAAGGAUAUACGAAAAUAAAAUAAAAUGUAGAAGGUAUAAUAG [Same State 1 #1] (puzzle: Same State 1) | – | 30.5 nM | – | – | – | –
10 | GGAAUGUGAUGUUACAUGAGGAUCACCCAUGUAGUGACAACUAAGGAUAUCUGAAAGGAAGGAGAGGAGAAGGUAGGAUCACAA [AK SSNG3-V2-16] (Eterna round: R96, puzzle: Same State NG 3) | – | – | – | 15.2 nM | 24.1 nM | 40.8 nM
11 | UAUCGUUUGAUAGGAUAUCGCUAUACAUGAGGAUCACCCAUGUUUACCACGCUGGUUUUUCAUACCGAGAAGGAUUCUGAUGAC [salish99_SSNG02_r04_006] (Eterna round: R96, puzzle: Same State NG 2) | – | – | – | 38.3 nM | 31.5 nM | 27.7 nM
12 | GGUAGGUUACUACCAAUCACAUGAGGAUCACCCAUGUUUUGGGAGGAUAUGGUACCUAUUUGGUACCAGAAGGCCUUAUUAAUU [Fiskers NG3ss - 12] (Eterna round: R96, puzzle: Same State NG 3) | – | – | – | 63.6 nM | 36.2 nM | 65.3 nM
13 | CUGUCUACAGGUGUCUUUGCUCGUUUUAUACAUGAGGAUCACCCAUGUUAUAGCCCGGUGCUUGCGCUGGGCUGAUU [JL ViennaUCT Tearor mod 8] (puzzle: Sensor for hsa-mir-208a) | 66.8 nM | 14.1 nM | 63 nM | – | – | –
14 | AGAAGACAUGAGGAUCACCCAUGUACAUAAUGAGGAGAAUGGGAGGAUAUGUAGAGAGAGAGGGAGCAGAAGGUCCAGUAUGAA [Default title] (Eterna round: R96, puzzle: Same State NG 3) | – | – | – | 98.9 nM | 99.2 nM | 148 nM
15 | UGGUACAUGGGAGGAUAUGGGCAAGGGACAUGAGGAUCACCCAUGUAUUAAAUGCCGAGAGGCAUCUAGAAGGCCCAUGUACCU [JL SSNG1 3.88] (Eterna round: R96, puzzle: Same State NG 2) | – | – | – | 17.8 nM | 79.8 nM | 173 nM
16 | AGAUGUUAAUUAGGAUAUGGUCACAUGAGGAUCACCCAUGUAACGAAGAUACGAUGUGGUCAAGACUAGAAGGGAUCGCUAACA [SameState NG2 #73] (Eterna round: R96, puzzle: Same State NG 2) | – | – | – | 40.5 nM | 47.4 nM | 55.3 nM
17 | GCGGAACCUGACAUGAGGAUCACCCAUGUUCCGGAAACGGCACAGGAUAUCUGUCCGAAAAGGUCAGAGAAGGGUGUAAACCGC [Fiskers NG3ss - 97] (Eterna round: R96, puzzle: Same State NG 3) | – | – | – | 29 nM | 325 nM | 210 nM
18 | UUUAUAGGCGCAGGAUAUGGUGAGGAUCACCCACUAGAAGGGUGCACAUGAGAAUCGGACAUGAGGAUCACCCAUGUCCGGCGC (Eterna round: R96, puzzle: Same State NG 1) | – | – | – | 915 nM | 201 nM | 526 nM
19 | CACAAUCUAUCUGAGGAUAUCAUGAAAAAAACAUGAGGAUCACCCAUGUGCAGGAAAACUGCAUAUGAGAAGGCAGAUAGAUUGU [salish99_SS2_r3_015] (Eterna round: R96, puzzle: Same State 2) | – | – | – | – | 514 nM | –
20 | AUCCUACAUGAGGAUCACCCAUGUGACGCCUCAAUAGGAUAUCGGGCCCACAGUCAGGAACGAGAAGGAUUGAAGC [Digerier] (puzzle: Same State 1) | 67.5 nM | 29.3 nM | 66.7 nM | – | – | –
21 | UUGAAGAAUUAAGGAUAUUGAAUACAUAUGUUUAACAUGAGGAUCACCCAUGUGGGUUGCGGUGUCGAGAAGGUAAAAUAAUAG [Mat - same State NG 2 - JL mod - D95] (Eterna round: R96, puzzle: Same State NG 2) | – | – | – | 194 nM | 124 nM | 329 nM
22 | AAACGGCCGAACGGAGGGCCACAUGAGGAUCACCCAUGUACAUAGGAUAUCACACCAACGAGGCGUGAGAAGGGUGAUUAAAAC [Teisedbe] (Eterna round: R96, puzzle: Same State NG 3) | – | – | – | 176 nM | 52.1 nM | 1110 nM
23 | GCUCGAUGAGCGAUUUACAUGAGGAUCACCCAUGUACGUGGGCAGGAUAUUUACGUGCGGUGUGUAGAGAAGGGCCCAUCGAGC [SameState NG3 #71] (Eterna round: R96, puzzle: Same State NG 3) | – | – | – | 62.5 nM | 206 nM | 332 nM
24 | AAAUAAAUGACUCAGGAUAUAUCAUAGAAUACAUGAGGAUCACCCAUGUUUUAAUAACAUGUUUGGUAGAAGGGAGUCAAUAAAU [LROPPY Same State 2 - v05_deltaG=1.86] (Eterna round: R96, puzzle: Same State 2) | – | – | – | 25.2 nM | 78.1 nM | 105 nM
25 | GCAGGACGAUAAUAUAACUUCACAUGAGGAUCACCCAUGUCUCAGGAUAUGGAUCCUAAUUGGAUCCAGAAGGGAGCGUCCUGC [Fiskers NG3ss - 34] (Eterna round: R96, puzzle: Same State NG 3) | – | – | – | 14.5 nM | 25.9 nM | 35.1 nM
26 | AGAUCAUGACGAGGAUAUGGUACAUGAGGAUCACCCAUGUAUGUACCAUAACGCGUACGACGAAACCAGAAGGCGUCGUGAUCA [Mat - Same State NG 2 - JL mod - D41] (Eterna round: R96, puzzle: Same State NG 2) | – | – | – | 9.06 nM | 12.2 nM | 20.7 nM
27 | GGAGCCGGCCUAGGAUAUUUCAUAAAUAAACAUGAGGAUCACCCAUGUAGGCCAGAAGGCCUUGGGAAGAAGGAGGUCGGCUCC [Loop Effect - U27] (Eterna round: R96, puzzle: Same State NG 2) | – | – | – | 9.58 nM | 30.2 nM | 33.9 nM
28 | GCUCGCACGAUGACCCACAUGAGGAUCACCCAUGUGCGUGGGCAGGAUAUCUAGAUUAAGGAUGUAGAGAAGGGUUGAGCGAGC [SameState NG3 #25] (Eterna round: R96, puzzle: Same State NG 3) | – | – | – | 555 nM | 136 nM | 302 nM
29 | UGCUAGUGGGUAGGAUAUCUAGGAUAUGGGAAAGACUAAGUCUGUAGGUCACCUAACCCAGAAGGAGAGAAGGACCAUUCAGCU [pwkr ssNG2 2FMN + F9.26] (Eterna round: R96, puzzle: Same State NG 2) | – | – | – | 165 nM | 22.5 nM | 38 nM
30 | GGUGCGAAUAAAGCCUACAUGAGGAUCACCCAUGUAUGUAGGCAGGAUAUCGUUUGCAAAGCAAACGAGAAGGGCUGACGCACC [Mat - Same State NG 3 - JL Mod - D49] (Eterna round: R96, puzzle: Same State NG 3) | – | – | – | 29.3 nM | 45.7 nM | 62.4 nM
